This note sets out measurements from article PMC8318374.

The assay concerns the target GFP-CC-tet-KLC1E^CTD (de novo-designed coiled-coil tetramer between GFP and KLC1E^CTD) (mouse). Nature of the assay: cross-linking.

In general, stoichiometry N refers to the number of molecules, sites or subunits per partner or assembly.

“GFP-CC-tet-KLC1E^CTD (de novo-designed coiled-coil tetramer between GFP and KLC1E^CTD)” registered a stoichiometry N of 4.
